From ChEMBL document CHEMBL3244047, “Peptidyl transferase substrate specificity with nonaromatic aminoacyl analogues of puromycin” (J Med Chem, 1978) come the findings set out here.

Data set [1] has as its target T1, Bacterial 70S ribosome (Bacteria) (UniProt P0A7V0+P60723+P0AG67+P0A7R5+P0A7R9+P0A7S3+P0A7S9+P0AG59+P0ADZ4+P0A7T3+P0AG63+P0A7T7+P0A7U3+P0A7U7+P68679+P0A7V3+P0A7V8+P0A7W1+P02358+P02359+P0A7W7+P0A7X3+P0A7J3+P0A7J7+P0AA10+P0ADY3+P02413+P0ADY7+P0AG44+P0C018+P0A7K6+P0A7L0+P0A7L3+P0AG48+P61175+P0ADZ0+P60624+P68919+P0A7L8+P0A7M2+P0A7M6+P60422+P0AG51+P0A7N1+P0A7M9+P0A7N4+P0A7N9+P0A7P5+P0A7Q1+Q2EEQ2+P0A7Q6+P60438+P62399+P0AG55+P0A7K2). Kind of data set: Activity of Escherichia coli ribosomal peptidyl transferase using Ac[14C]phe-tRNA as donor substrate assessed as [14C]polyphenylalanine formation after 40 mins by scintillation counting analysis in presence of poly(U) relative to puromycin.

The subject of data set [2] is CCCSC[C@H](N)C(=O)N[C@H]1[C@@H](O)[C@H](n2cnc3c(N(C)C)ncnc32)O[C@@H]1CO. In words: (§1) Activity of Escherichia coli ribosomal peptidyl transferase using Ac[14C]phe-tRNA as donor substrate assessed as [14C]polyphenylalanine formation after 40 mins by double reciprocal plot analysis in presence of poly(U). As to conditions: Ribosome.
In data set [3] the test system is COc1ccc(C[C@H](N)C(=O)N[C@H]2[C@@H](O)[C@H](n3cnc4c(N(C)C)ncnc43)O[C@@H]2CO)cc1. Described as §1. As to conditions: Ribosome.
The test system of data set [4] is CCCCCSC[C@H](N)C(=O)N[C@H]1[C@@H](O)[C@H](n2cnc3c(N(C)C)ncnc32)O[C@@H]1CO. Described as §1. The note with it: Ribosome.
Data set [5] concerns CCCCSC[C@H](N)C(=O)N[C@H]1[C@@H](O)[C@H](n2cnc3c(N(C)C)ncnc32)O[C@@H]1CO. The description is as §1. As to conditions: Ribosome.
For data set [6], the system named is CCCCCCSC[C@H](N)C(=O)N[C@H]1[C@@H](O)[C@H](n2cnc3c(N(C)C)ncnc32)O[C@@H]1CO. Described as §1. As to conditions: Ribosome.
In data set [7] the test system is CCCCCCCCSC[C@H](N)C(=O)N[C@H]1[C@@H](O)[C@H](n2cnc3c(N(C)C)ncnc32)O[C@@H]1CO. The data set is described as §1. The note with it: Ribosome.
In data set [8] the test system is CN(C)c1ncnc2c1ncn2[C@@H]1O[C@H](CO)[C@@H](NC(=O)[C@@H](N)CSCc2ccccc2)[C@H]1O. The description is as §1. As to conditions: Ribosome.
Data set [9] concerns CN(C)c1ncnc2c1ncn2[C@@H]1O[C@H](CO)[C@@H](NC(=O)[C@@H](N)CSCCCCCCO)[C@H]1O. Described as §1. The note with it: Ribosome.
In data set [10] the target is T1, Bacterial 70S ribosome (Bacteria). Kind of data set: Activity of Escherichia coli ribosomal peptidyl transferase using Ac[14C]phe-tRNA as donor substrate assessed as [14C]polyphenylalanine formation at 2 x 10^-4 M after 40 mins by double reciprocal plot analysis in presence of poly(U).

The source made the active and inactive calls. The calls are words filed in the database; no cut-off is given here.

`CN(C)c1ncnc2c1ncn2[C@@H]1O[C@H](CO)[C@@H](NC(=O)[C@@H](N)CSCc2ccccc2)[C@H]1O`: the Efficacy in [1] was 17.4%.
A word on the Km: it is the substrate concentration at which the rate is half of its maximum. Usually Vmax stands for the rate approached at saturating substrate. For the compound “Bacterial 70S ribosome (Bacteria) (from UniProt P0A7V0+P60723+P0AG67+P0A7R5+P0A7R9+P0A7S3+P0A7S9+P0AG59+P0ADZ4+P0A7T3+P0AG63+P0A7T7+P0A7U3+P0A7U7+P68679+P0A7V3+P0A7V8+P0A7W1+P02358+P02359+P0A7W7+P0A7X3+P0A7J3+P0A7J7+P0AA10+P0ADY3+P02413+P0ADY7+P0AG44+P0C018+P0A7K6+P0A7L0+P0A7L3+P0AG48+P61175+P0ADZ0+P60624+P68919+P0A7L8+P0A7M2+P0A7M6+P60422+P0AG51+P0A7N1+P0A7M9+P0A7N4+P0A7N9+P0A7P5+P0A7Q1+Q2EEQ2+P0A7Q6+P60438+P62399+P0AG55+P0A7K2)”, the Km in data set [2] came out at 374 µM; in [3] it was 234 µM; in [4], 255 µM; in [5], 395 µM; in [6], 215 µM; in data set [7], 177 µM. The Km in data set [8] was found to be 460 µM; in [9], 166 µM. In addition, the Vmax was 2.86 pmol/min in [2]; 3.99 pmol/min in data set [3]; 2.36 pmol/min in data set [4]; 2.43 pmol/min in data set [5]; 2.46 pmol/min in [6]; 1.38 pmol/min in [7]. Further, the figures for the Vmax in [8] and in data set [9] were 1.36 pmol/min and 2.71 pmol/min, respectively.
Turning to `CCCCCCCCSC[C@H](N)C(=O)N[C@H]1[C@@H](O)[C@H](n2cnc3c(N(C)C)ncnc32)O[C@@H]1CO`, in data set [1], the Efficacy worked out at 45.6%.
With `CCC(CC)SC[C@H](N)C(=O)N[C@H]1[C@@H](O)[C@H](n2cnc3c(N(C)C)ncnc32)O[C@@H]1CO`, the result in data set [10] was inactive.
Consider `CN(C)c1ncnc2c1ncn2[C@@H]1O[C@H](CO)[C@@H](NC(=O)[C@@H](N)CSCCCCCCO)[C@H]1O`, for which the Efficacy in [1] was 95.6%.
Consider `CN(C)c1ncnc2c1ncn2[C@@H]1O[C@H](CO)[C@@H](NC(=O)[C@@H](N)CSC(c2ccccc2)c2ccccc2)[C@H]1O`, for which the outcome in [10] was inactive.
Consider `CCCCCCSC[C@H](N)C(=O)N[C@H]1[C@@H](O)[C@H](n2cnc3c(N(C)C)ncnc32)O[C@@H]1CO`, for which the Efficacy in data set [1] was found to be 67.5%.
Same read-out and setting: to `CCCSC[C@H](N)C(=O)N[C@H]1[C@@H](O)[C@H](n2cnc3c(N(C)C)ncnc32)O[C@@H]1CO` belongs 44.8%; to `CCCCCSC[C@H](N)C(=O)N[C@H]1[C@@H](O)[C@H](n2cnc3c(N(C)C)ncnc32)O[C@@H]1CO`, 54.3%.
Regarding `CCCCSC[C@H](N)C(=O)N[C@H]1[C@@H](O)[C@H](n2cnc3c(N(C)C)ncnc32)O[C@@H]1CO`, the Efficacy in data set [1] stood at 36.2%.
